Measurements taken from patent publication US8597922B2, “Methods and compositions for producing olefins” (LS9, Inc., priority 2007, dated 2013).

Experiments:
Assay type in all cases: cell-based
[1] = tested on: B. subtilis IHA01; assay: α-Olefin production in Bacillus subtilis by heterologous expression; conditions: 0.05% stearic acid, versus vector only control
Description: Genomic DNA encoding Jeotgalicoccus ATCC 8456_orf880 was cloned into the BamHI and XbaI sites of vector pHT01 under the control of the Pgrac promoter. B. subtilis IHA01 (lacA::spec leuB8 metB5 r(−)m(+) Sp, obtained from Bacillus Genetic Stock Center, Columbus, Ohio, strain number BGSC 1A785) was transformed with the resulting vector. The B. subtilis cells were grown at 37° C. in minimal medium supplemented with 2% glucose, 0.3 mM leucine, 0.3 mM methionine, and 10 mg/L chloramphenicol. When the cultures reached an OD600 of 0.8 to 1.0, 1 mM IPTG was added (to induce expression of orf880) along with 0.5 mM 5-amino laevulinic acid (as a precursor for heme biosynthesis) and 0.05% stearic acid (as a substrate for ORF880). The temperature was shifted to 25° C. and after growth for additional 18-24 h at 25° C., cells from a 1 mL culture were pelleted, resuspended in 100 μL methanol, sonicated for 1 h, and extracted with 300 μL ethyl acetate. 300 μL of water was added before separating the organic layer by centrifugation at 15,000 rpm for 5 min. The solvent layer was analyzed by GC-MS.
Genomic DNA encoding Corynebacterium efficiens YS-134 orfCE2459 was cloned into the BamHI and XbaI sites of vector pHT01 under the control of the Pgrac promoter and transformed into B. subtilis IHA01 cells. The resulting cells were grown, extracted, and analyzed as described in Example 9.

[2] = tested on: E. coli; assay: Heterologous expression of 8456_orf880 in E. coli with fatty acid feeding
Description: ATCC 8456 cells were grown in 15 mL TSBYE medium (3% Tryptic Soy Broth+0.5% Yeast Extract). Fatty acids were added to the culture medium at final concentrations of 0.5 g/l (0.05%). After growth for 40-48 h at 30° C., cells from 5 mL of culture were pelleted, resuspended in 1 mL methanol, sonicated for 30 min, and extracted with 4 mL hexane. After solvent evaporation, samples were resuspended in 0.1 mL hexane and analyzed by GC-MS.
Jeotgalicoccus ATCC 8456 ORF880 was identified as one of the two major proteins in a highly purified enzyme fraction that catalyzed the conversion of free fatty acids to α-olefins. The genomic DNA encoding ATCC 8456_orf880 was cloned into pCDF-Duet1 under the control of the T7 promoter, and E. coli was transformed with various vectors, as described below. The E. coli cells were grown, and the hydrocarbons produced by the cells were analyzed as described in Example 2. When 0.05% stearic acid was fed to cultures of E. coli transformed with the 8456_orf880-containing vector, the expression of 8456_orf880 led to the formation of 1-heptadecene in E. coli (see FIG. 8, depicting GC/MS traces of α-olefins from E. coli either without (black) or with (gray) expression of 8456_orf880). […] Additionally, when E. coli cells expressing 8456_orf880 protein were fed with 0.05% palmitic acid or 0.05% eicosanoic acid, the production of 1-pentadecene or 1-nonadecene, respectively, was observed.

[3] = tested on: S. cerevisiae (BY4741) yeast cells; assay: α-Olefin production in Saccharomyces cerevisiae by heterologous expression of orf880; conditions: expressed in S. cerevisiae
Description: Genomic DNA encoding Jeotgalicoccus sp. ATCC 8456_orf880 is cloned into the ApaI and XhoI sites of the yeast expression vector pESC-His. S. cerevisiae (BY4741) yeast cells are then transformed with either a plasmid containing orf880 or a plasmid not containing orf880. The transformed yeast cells are cultured under suitable conditions to allow expression of ORF880. The cells are pelleted and then lysed using YeastBuster™ (Novagen, Madison, Wis.). The α-olefins are extracted and analyzed as described in Examples 6 and 7.

[4] = tested on: E. coli MG1655 ΔfadD; assay: α-Olefins from glucose by expression of orf880 in E. coli MG1655 ΔfadD; conditions: glucose (1%, w/v) only carbon source, versus vector-only control
Description: The genomic DNA encoding ATCC 8456_orf880, which was codon-optimized for expression in E. coli (SEQ ID NO:4), was cloned into vector OP80 (pCL1920 derivative) under the control of the Ptrc promoter, and E. coli MG1655 ΔfadD was transformed with the resulting vector. The E. coli cells were grown at 37° C. in M9 mineral medium supplemented with 20 μg/mL uracil and 100 μg/mL spectinomycin. Glucose (1%, w/v) was the only source of carbon and energy. When the culture reached an OD600 of 0.8 to 1.0, IPTG (1 mM) and 0.5 mM delta-aminolaevulinic acid (heme biosynthesis precursor) were added. The temperature was shifted to 25° C. After growth for an additional 18 to 24 h at 25° C., the cells from 10 mL of culture were pelleted, resuspended in 1 mL methanol, sonicated for 30 min, and extracted with 4 mL hexane. After solvent evaporation, the samples were resuspended in 0.1 mL hexane and analyzed by GC-MS.

B1: ORF880: olefin-producing enzyme (fatty acid decarboxylase) from Jeotgalicoccus sp. ATCC 8456, SEQ ID NO:2 (protein)
chain: MATLKRDKGLDNTLKVLKQGYLYTTNQRNRLNTSVFQTKALGGKPFVVVTGKEGAEMFYNNDVVQREGMLPKRIVNTLFGKGAIHTVDGKKHVDRKALFMSLMTEGNLNYVRELTRTLWHANTQRMESMDEVNIYRESIVLLTKVGTRWAGVQAPPEDIERIATDMDIMIDSFRALGGAFKGYKASKEARRRVEDWLEEQIIETRKGNIHPPEGTALYEFAHWEDYLGNPMDSRTCAIDLMNTFRPLIAINRFVSFGLHAMNENPITREKIKSEPDYAYKFAQEVRRYYPFVPFLPGKAKVDIDFQGVTIPAGVGLALDVYGTTHDESLWDDPNEFRPERFETWDGSPFDLIPQGGGDYWTNHRCAGEWITVIIMEETMKYFAEKITYDVPEQDLEVDLNSIPGYVKSGFVIKNVREVVDRT
modifications: Jeotgalicoccus sp. ATCC8456
α-olefin produced from stearic acid [1]: 1-heptadecene | α-olefin produced ([2]; 0.05% eicosanoic acid fed): 1-nonadecene | α-olefin produced ([2]; 0.05% palmitic acid fed): 1-pentadecene | α-olefin produced ([2]; 0.05% stearic acid fed): 1-heptadecene | α-olefin production [3]: produces α-olefins | α-olefins produced [4]: 1-pentadecene and heptadecadiene
